Test results reported in patent publication US6403765B1, “Truncated Apaf-1 and methods of use thereof” (Thomas Jefferson University, priority 1998, dated 2002).

Key:
procaspase-9 [1] = test: Autoprocessing of in vitro translated procaspase-9 and Fc-fusion procaspase-9 variants; type: biochemical; conditions: 35S-labeled, FIG. 9
Text: (§1) ^35S-labeled caspases were obtained by in vitro translation in the presence of ^35S-methionine using a coupled transcription/translation system in rabbit reticulocyte lysate using TNT Kit (Promega) according to the manufacturer's recommendations.
Artificially-induced oligomerization of procaspase-1 or procaspase-8 by overexpression or by heterologous-inducible oligomerization systems causes their autocatalytic processing/activation (Gu et al., EMBO 14:1923-1931, 1995; Muzio et al., J. Biol. Chem. 273:2926-2930, 1998; Yang et al., Mol. Cell 1:319-325, 1998). To test if procaspase-9 can also be activated by heterologous oligomerization, WT and the C287A mutant procaspase-9 was fused to the mouse IgG-Fc portion which can form spontaneous dimers by intermolecular disulfide linkages. FIG. 9 depicts processing of non-fusion WT procaspase-9 (pcasp-9, lane 1) or C-terminal Fc-fusion WT (pcasp-9-Fc, lane 2) or C287A (active site) mutant (pcasp-9-C287A-Fc, lane 3) procaspase-9 which were in vitro translated in the presence of ^35S-methionine and then analyzed by SDS-PAGE and autoradiography.

MCF-7 cells [2] = test: Induction of apoptosis in MCF-7 cells transfected with procaspase-9 variants; type: cell-based; conditions: overexpression, 30 hours after transfection, FIG. 10
Text: (§2) To express the caspases or truncated Apaf-1 in mammalian cells and assay their apoptotic activity, they were amplified with the T7-tag primer and reverse primers using the pET28a constructs as templates, and subcloned into the mammalian double expression vector pRSC-LacZ (MacFarlane et al., J. Biol. Chem., 272:25417-25420, 1997; Tsang et al., Bio/Technology, 22:68, 1997) or as previously described (Li et al., Cell 91:479-489, 1997; Srinivasula et al., J. Biol. Chem., 272:18452-18545, 1997). This vector allows the expression of lacZ under the Rous Sarcoma virus promoter, and the test cDNA under the CMV promoter. To assay for apoptosis, MCF-7 or 293 cells were transfected, using the method commercially available as the Lipofect Amine method (Life Technologies, Inc.), with the pRSC-LacZ constructs in the presence or absence of different apoptosis-inhibitors. 30 h after transfection cells were stained with β-galactosidase and examined for morphological signs of apoptosis. The percentage of round blue apoptotic cells (mean±SD) were determined by phase contrast microscopy and then represented as a function of total blue cells under each condition (n≧3).
In FIG. 10, mammalian expression constructs encoding Fc or the procaspase-9 variants described in FIG. 9 were transfected into MCF-7 cells together with a reporter β-gal expression construct at a ratio of 3:1. […]

procaspase-9 [3] = biological target: T1, procaspase-9 (Homo sapiens, UniProt P55211); test: In vitro caspase 9 activation assay: recombinant Apaf-1 variants incubated with in vitro translated procaspase-9; type: biochemical; conditions: in vitro reconstituted system, data not shown
T1 construct: schematic representation of full length procaspase-9; made in house; host or cells: coupled in vitro transcription/translation in rabbit reticulocyte lysate (TNT Kit, Promega)
T1 sequence (P55211 1-416): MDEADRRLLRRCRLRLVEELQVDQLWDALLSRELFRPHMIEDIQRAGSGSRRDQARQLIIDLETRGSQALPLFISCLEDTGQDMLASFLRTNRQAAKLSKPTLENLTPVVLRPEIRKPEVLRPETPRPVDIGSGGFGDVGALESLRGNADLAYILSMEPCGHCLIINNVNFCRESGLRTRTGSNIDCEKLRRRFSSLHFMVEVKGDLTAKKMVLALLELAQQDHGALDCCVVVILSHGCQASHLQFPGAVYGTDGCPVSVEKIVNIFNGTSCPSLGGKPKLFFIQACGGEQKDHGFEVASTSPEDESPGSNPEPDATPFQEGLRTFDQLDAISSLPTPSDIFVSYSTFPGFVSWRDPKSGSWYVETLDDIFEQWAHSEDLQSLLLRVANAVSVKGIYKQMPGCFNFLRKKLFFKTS
Experimental: SDS sample buffer was then added to each sample, boiled and subjected to SDS-PAGE analysis followed by autoradiography. In FIG. 2A procaspase-9 was in vitro translated in the presence of ^35S-methionine. Following translation procaspase-9 was desalted by gel filtration through a biospin column (BioRad) to remove unincorporated methionine and free nucleotides. Desalted procaspase-9 was then incubated with 200 ng Ni^2+-affinity purified bacterially expressed recombinant Apaf-530 (WT or K149R mutant) in the presence or absence of cytochrome c or dATP or both for 2 h at 30° C. A mock sample containing Ni^2+-affinity purified material from bacteria transformed with an empty vector was used as a negative control. Following incubation the products were analyzed by SDS-PAGE and autoradiography. In FIG. 2B^35S-labeled procaspase-9 (as described above) was incubated with bacterial lysates containing truncated Apaf-1 variants as indicated and then analyzed as above (2B upper panel). The bacterial lysates were analyzed by SDS-PAGE and immunoblotted with an Apaf-1 antibody which recognizes the N-terminus of Apaf-1 (lanes 2-6) and an anti T7-tag antibody (lanes 7-8) to confirm expression and equivalent concentration of the different Apaf-1 variants (2B lowerpanel). The molecular mass markers are indicated to the right of the lower panel.
as §1
To determine the role of the WD-40 repeat in the mechanism of Apaf-1-induced processing of procaspase-9, truncated Apaf-1 (Apaf-530) lacking its WD-40 repeats (FIG. 1) was expressed and purified. To reconstitute a recombinant caspase-9 activation system, the truncated Apaf-530 was incubated with in vitro translated recombinant procaspase-9 in the presence or absence of cytochrome c and dATP. […] It was previously shown that mutation of CED-4 K165R which is required for nucleotide binding destroys its activity (Chinnaiyan et al., Nature 388:728-729, 1997; Jarnes et al., Curr. Biol. 7:246-252, 1997; Seshagiri and Miller, Curr. Biol. 7:455-460, 1997). […] Therefore, either binding of Apaf-1 to cytochrome c and dATP or deletion of the repeats could induce a conformational change enabling Apaf-1 to bind and process procaspase-9.
In FIG. 3, ^35S-labeled WT or mutant D330A, D315A or C287A mutants of procaspase-9 or prodomainless procaspase-9 (Δpro, residues 134-416) were incubated with buffer (lanes 1, 4, 7, 10, 13), purified Apaf-530 (lanes 2, 5, 8, 11, 14) or mock purified material (lanes, 3, 6, 9, 12, 15) and then analyzed by SDS-PAGE and autoradiography.

procaspase-3 = test: Cytochrome c/dATP-dependent processing of procaspase-3 in 293 cellular S100 extract; type: biochemical; conditions: 293 S100 extract, increasing amounts of purified protein, 1 hour at 30° C., dose-dependent, FIG. 18
Experimental: (§3) To confirm this, a time course analysis of procaspase-9 and procaspase-3 processing was performed in cellular S100 extracts from 293 and MCF-7 cells. […] At the indicated times the reactions were stopped and then analyzed by SDS-PAGE and autoradiography (procaspase-9 panels) or Western blot analysis using anti-caspase-3 p20 polyclonal antibody (procaspase-3 panels). Small arrows indicate a non-specific band detected by the anti-caspase-3 antibody.
In FIG. 8, ^35S-labeled procaspase-3, -6 or -7 were incubated with S100 extracts from 293 cells in the presence or absence of cytochrome c/dATP or DEVD-CHO, or both and analyzed by SDS-PAGE followed by autoradiography. However, when DEVD-CHO was included, processing of procaspase-6 (lane 6), but not procaspase-3 (lane 3) or -7 (lane 9) was inhibited. […] Also, since caspase-7 cannot process procaspase-6 (Srinivasula et al., J. Biol. Chem. 271:27099-27106, 1996), caspase-3 is the one responsible for processing of procaspase-6 in the cytochrome c plus dATP-dependent pathway.
(§4) In FIG. 18, 293 cellular S100 extracts supplemented with ^35S-labeled procaspase-9 (upper panel) or procaspase-3 (lower panel) were incubated with (lanes 3-7) or without (lane 2) cytochrome c plus dATP in the presence of increasing amounts of purified recombinant procaspase-9-C287A mutant for 1 hour at 30° C. and then analyzed by SDS-PAGE and autoradiography. […] Consequently, the Apaf-1/caspase-9 pathway appears to be a central apoptotic pathway, on which most apoptotic signals converge.

MCF-7 cells [4] = test: Inhibition of apoptosis in transfected MCF-7 cells; type: cell-based; conditions: apoptosis induced by UV, Fas agonist antibody
Text: as §2

procaspase-9 [5] = test: Cytochrome c/dATP-dependent processing of procaspase-9 in 293 cellular S100 extract; type: biochemical; conditions: 293 S100 extract, increasing amounts of purified protein, 1 hour at 30° C., dose-dependent, FIG. 18
Experimental: To study processing of procaspase-9 in the cytochrome c/Apaf-1-dependent pathway, WT and the Asp to Ala mutants of procaspase-9 were incubated with a cellular S100 extract in the presence or absence of cytochrome c and dATP. […] Samples were then analyzed by SDS-PAGE and autoradiography.
as §3, §4

[6] = tested on: apoptosis induced by the proapoptotic members of the Bcl-2 family; conditions: Hegde et al. 1998; Li et al. 1997; cited from earlier work

B1: WT procaspase-9: non-fusion wild type procaspase-9 (protein)
chain: MDEADRRLLRRCRLRLVEELQVDQLWDALLSRELFRPHMIEDIQRAGSGSRRDQARQLIIDLETRGSQALPLFISCLEDTGQDMLASFLRTNRQAAKLSKPTLENLTPVVLRPEIRKPEVLRPETPRPVDIGSGGFGDVGALESLRGNADLAYILSMEPCGHCLIINNVNFCRESGLRTRTGSNIDCEKLRRRFSSLHFMVEVKGDLTAKKMVLALLELAQQDHGALDCCVVVILSHGCQASHLQFPGAVYGTDGCPVSVEKIVNIFNGTSCPSLGGKPKLFFIQACGGEQKDHGFEVASTSPEDESPGSNPEPDATPFQEGLRTFDQLDAISSLPTPSDIFVSYSTFPGFVSWRDPKSGSWYVETLDDIFEQWAHSEDLQSLLLRVANAVSVKGIYKQMPGCFNFLRKKLFFKTS
- self-processing to large subunit (p35) and small subunit (procaspase-9 [1]): incapable of processing
- induction of apoptosis (MCF-7 cells [2]): induced little apoptosis

B2: Caspase-9-DN: dominant negative procaspase-9-C287A mutant (protein)
chain: MDEADRRLLRRCRLRLVEELQVDQLWDALLSRELFRPHMIEDIQRAGSGSRRDQARQLIIDLETRGSQALPLFISCLEDTGQDMLASFLRTNRQAAKLSKPTLENLTPVVLRPEIRKPEVLRPETPRPVDIGSGGFGDVGALESLRGNADLAYILSMEPCGHCLIINNVNFCRESGLRTRTGSNIDCEKLRRRFSSLHFMVEVKGDLTAKKMVLALLELAQQDHGALDCCVVVILSHGCQASHLQFPGAVYGTDGCPVSVEKIVNIFNGTSCPSLGGKPKLFFIQAAGGEQKDHGFEVASTSPEDESPGSNPEPDATPFQEGLRTFDQLDAISSLPTPSDIFVSYSTFPGFVSWRDPKSGSWYVETLDDIFEQWAHSEDLQSLLLRVANAVSVKGIYKQMPGCFNFLRKKLFFKTS
- attenuation of Apaf-530-induced activation of procaspase-9 (procaspase-9 [3]): A similar result
- attenuation of cytochrome c/dATP-induced activation of procaspase-3 (procaspase-3): able to attenuate
- inhibition of apoptosis (MCF-7 cells [4]; TRAIL, or overexpression of DR4 and DR5, FIG. 17): can also inhibit apoptosis
- inhibition of apoptosis (MCF-7 cells [4]; TRAIL, or overexpression of DR4 and DR5, FIG. 17, listed as dominant negative caspase-9 mutant): as efficient as that observed with Bcl-xL or X-IAP
- attenuation of cytochrome c/dATP-induced activation of procaspase-9 (procaspase-9 [5]): able to attenuate
- inhibition of apoptosis induced by the proapoptotic members of the Bcl-2 family [6]: can inhibit apoptosis
